Assay results from article PMC3482499.

Target: T1, Cra (Escherichia coli O157:H7 (EHEC) 86-24) (UniProt P0ACP3)
T1 sequence: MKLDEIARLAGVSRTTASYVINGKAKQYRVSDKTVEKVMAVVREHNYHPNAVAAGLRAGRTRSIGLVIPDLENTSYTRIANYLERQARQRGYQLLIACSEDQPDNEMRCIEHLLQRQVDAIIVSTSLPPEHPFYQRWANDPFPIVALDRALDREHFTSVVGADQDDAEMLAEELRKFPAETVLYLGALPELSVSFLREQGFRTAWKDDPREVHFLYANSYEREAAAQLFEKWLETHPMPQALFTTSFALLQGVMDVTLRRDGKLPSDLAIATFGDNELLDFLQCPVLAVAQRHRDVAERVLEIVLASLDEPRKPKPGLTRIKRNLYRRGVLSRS
Experiment: competition

“TCGGATCCCATGTGCTGCGACTGCGTTCGCTTACCCCAATCACTTACTTATGTAAGCTCCTGGGGATTCACTCGCTTGCCGCCTTCCTGTAACTCGAATTAAGTAGAGTATAGTGAAACGGTTCAGCTTGGTTTTTATTCTGTTTTATTTGTTTATGCAATGAGATCTATCTTATAAAGAGAAACGCTTAACTAAATGGAAATGCGAATTCGA (double strand) [ler probe aa (-450 to -255)]” was tested, and the binding was “binds”.
